Biological target: GFP-FLN90 (short 90 kDa isoform of Drosophila filamin/cheerio with an N terminus EGFP tag) (Drosophila)
Assay: proximity ligation; in situ PLA (Duolink) in HEK293T cells co-expressing V5-dPak with GFP-FLN90 or GFP alone; fixed with 4% paraformaldehyde about 40 hr after transfection; mouse anti-V5 and rabbit anti-GFP; GFP+ cells scored as PLA+ if they had more than three puncta

Sequence of GFP-FLN90 (short 90 kDa isoform of Drosophila filamin/cheerio with an N terminus EGFP tag) (Drosophila) (Q9VEN1 whole entry, canonical isoform): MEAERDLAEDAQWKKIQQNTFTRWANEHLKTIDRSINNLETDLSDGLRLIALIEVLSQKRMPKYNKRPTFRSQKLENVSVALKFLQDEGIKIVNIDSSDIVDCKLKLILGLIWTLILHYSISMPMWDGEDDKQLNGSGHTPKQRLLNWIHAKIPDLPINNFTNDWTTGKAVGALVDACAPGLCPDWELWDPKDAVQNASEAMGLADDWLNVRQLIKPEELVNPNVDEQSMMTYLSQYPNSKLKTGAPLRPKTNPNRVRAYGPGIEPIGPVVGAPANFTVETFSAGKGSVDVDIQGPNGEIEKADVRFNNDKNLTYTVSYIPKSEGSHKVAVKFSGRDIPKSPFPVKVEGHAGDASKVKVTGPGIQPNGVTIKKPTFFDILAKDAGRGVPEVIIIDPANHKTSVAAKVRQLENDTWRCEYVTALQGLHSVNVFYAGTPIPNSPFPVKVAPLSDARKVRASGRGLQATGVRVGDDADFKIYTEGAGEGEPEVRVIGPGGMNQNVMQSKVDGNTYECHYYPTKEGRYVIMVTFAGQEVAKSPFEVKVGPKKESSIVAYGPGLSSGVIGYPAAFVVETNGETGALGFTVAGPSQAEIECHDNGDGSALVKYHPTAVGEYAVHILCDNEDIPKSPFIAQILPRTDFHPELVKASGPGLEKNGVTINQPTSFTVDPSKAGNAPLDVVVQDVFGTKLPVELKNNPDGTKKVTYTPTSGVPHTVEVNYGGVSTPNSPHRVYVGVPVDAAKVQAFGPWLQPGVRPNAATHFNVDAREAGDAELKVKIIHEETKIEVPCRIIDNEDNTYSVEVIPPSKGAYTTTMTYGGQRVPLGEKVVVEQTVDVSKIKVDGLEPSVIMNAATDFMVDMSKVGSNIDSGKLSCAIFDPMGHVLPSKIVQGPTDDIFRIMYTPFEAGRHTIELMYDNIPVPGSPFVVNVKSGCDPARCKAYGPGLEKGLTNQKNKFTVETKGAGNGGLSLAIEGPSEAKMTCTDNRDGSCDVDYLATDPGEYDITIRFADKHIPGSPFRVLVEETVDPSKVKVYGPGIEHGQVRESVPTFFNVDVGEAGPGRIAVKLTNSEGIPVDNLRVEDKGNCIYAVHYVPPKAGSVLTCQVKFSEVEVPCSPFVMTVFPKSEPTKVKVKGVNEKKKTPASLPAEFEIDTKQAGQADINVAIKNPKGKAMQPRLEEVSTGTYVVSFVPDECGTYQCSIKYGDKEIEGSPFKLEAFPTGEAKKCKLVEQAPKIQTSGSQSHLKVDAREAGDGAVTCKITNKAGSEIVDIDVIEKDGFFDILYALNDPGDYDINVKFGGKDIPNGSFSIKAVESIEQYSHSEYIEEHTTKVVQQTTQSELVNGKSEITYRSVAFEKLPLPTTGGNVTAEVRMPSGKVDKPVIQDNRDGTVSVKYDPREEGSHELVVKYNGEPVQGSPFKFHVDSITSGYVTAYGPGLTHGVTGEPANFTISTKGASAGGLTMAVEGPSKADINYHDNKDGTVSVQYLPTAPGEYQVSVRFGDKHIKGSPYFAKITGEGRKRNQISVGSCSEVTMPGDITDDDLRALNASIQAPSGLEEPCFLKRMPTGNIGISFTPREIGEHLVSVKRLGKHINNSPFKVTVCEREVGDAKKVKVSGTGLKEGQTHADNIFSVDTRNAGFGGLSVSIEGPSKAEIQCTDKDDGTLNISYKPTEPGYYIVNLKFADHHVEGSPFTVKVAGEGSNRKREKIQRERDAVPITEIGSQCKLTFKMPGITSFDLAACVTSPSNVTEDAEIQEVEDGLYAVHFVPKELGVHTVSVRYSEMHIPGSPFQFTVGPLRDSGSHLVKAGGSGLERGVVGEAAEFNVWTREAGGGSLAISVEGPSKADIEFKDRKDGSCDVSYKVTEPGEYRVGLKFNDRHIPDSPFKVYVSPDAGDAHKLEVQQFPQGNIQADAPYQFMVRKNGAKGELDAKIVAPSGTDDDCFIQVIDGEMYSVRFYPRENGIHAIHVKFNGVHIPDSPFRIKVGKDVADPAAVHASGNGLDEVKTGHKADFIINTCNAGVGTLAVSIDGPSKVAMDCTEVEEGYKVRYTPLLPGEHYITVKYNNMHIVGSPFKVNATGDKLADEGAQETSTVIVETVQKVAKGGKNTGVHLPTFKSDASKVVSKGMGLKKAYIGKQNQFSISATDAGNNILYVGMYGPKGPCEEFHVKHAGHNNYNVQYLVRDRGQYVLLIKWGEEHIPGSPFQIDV

V5-dPak (Drosophila p21-activated kinase Pak with a V5 tag) (from UniProt Q9VI13 1-704) (enzyme)
PLA-positive cells among GFP+ cells (of 973 GFP+ cells): 484
